These results are taken from US20200079823A1.

This assay addresses cathepsin B.

With surugamide I (13) (peptide), the IC50 of cathepsin B inhibition (fluorescence-based kit assay) was 9 µM.
